How the values were obtained:
Assay in all cases: FXa generation assay
[1] = biological target: FVIIIa Gly1750Cys/Arg2116Cys (thrombin-activated B domainless factor VIII variant) (UniProt P00451)
[2] = biological target: FVIIIa Ala1866Cys/Ser2119Cys (thrombin-activated B domainless factor VIII variant) (UniProt P00451)
[3] = biological target: WT FVIIIa (thrombin-activated B domainless factor VIII) (UniProt P00451)
[4] = biological target: FVIIIa Ser2029Cys/Pro2292Cys (thrombin-activated B domainless factor VIII variant) (UniProt P00451)
[5] = biological target: FVIIIa Arg2116Val (thrombin-activated B domainless factor VIII variant) (UniProt P00451)
[6] = biological target: FVIIIa Arg2116Ala (thrombin-activated B domainless factor VIII variant) (UniProt P00451)

Kd [1]: 0.44 nM
Kd [2]: 0.4 nM
Kd [3]: 0.43 nM
Kd [4]: 0.33 nM
Kd [5]: 0.4 nM
Kd [6]: 0.45 nM
Substance: factor IXaβ (enzyme)

Reference: publication PMC3731059
